Laboratory results: patent US20200010567A1 (NEURIMMUNE, published 2020)

B1: NI-308.15O7 (antibody, V domains shown)
VH: QVQLVESGGGVVQPGRSLRLSCAASGFTFSNHAMHWVRQAPGKGLEWVAVISYDGENTYYADSIEGRFTISRDNFKNTLFLQMYSLTADDTAMYFCARGGRRGHFTSYYLDYWGQGTLVTVSS
VL: CDIQMTQSPSSLSASVGDRVTITCRASQNIDKYLNWYQQIPGKAPKLLIYAASSLHSGVPSRFSGSGSGTDFSLTISSLQPEDFAIYYCQQSYSSFRTFGQGTKLEIK
B2: NI-308.5G2 (antibody, V domains shown)
VH: EVQLVQSGADLRNPGASVTVSCTASGYHFADNAINWLRQAPGQRLEWMGWINIYSGNTKYSQNFQGRVTFTRNTSASTAFMHLRSLRSEDTAVYFCARDPDSSGYYLPYFDYWGQGTLVTVSS
VL: DIQLTQSPDSLTLSLGERATINCKSSQSVFYNSNNKNYLAWYQQKPGQPPKLLMYWASTRESGVTDRFSGSGSGTDFTLTITNLQAEDVAVYYCQQFYSSPLTFGGGTKVEIK
notes: Recombinant complete human IgG1, kappa
B3: NI-308.46E9 (antibody, V domains shown)
VH: QVQLQESGPGLVKPSETLSLTCTVSGASISGSTYYWGWIRQPPGKGLEYIGRIYYSGSTYYNPSLKSRATISVDTSKNQLSLTLSSVTAADTAVYYCVRPFYAGSGNSPFDYWGQGTLVTVSS
VL: CEIVLTQSPATVSVSPGERATLSCRASQSVSTNLAWYQQKPGQPPRLLIYGASTRATGIPARFSGSGSGAEFTLTISSLQSEDFVVYYCQQYNNWPPAFGGGTKVEIK
notes: as for B2
B4: NI-308.18F7 (antibody, V domains shown)
VH: QVQLQESGPGLVKPSETLSVTCTVSGGSINDYYWNWIRQPAGKGLEWIGRIYASGTINYNPSLQSRVTMSIDTSKNQFSLDLISVSAADTAVYYCARWGQVVGDYYYGMDVWGQGTTVTVSS
VL: EIVLTQSPLSLSVTPGEPASISCKSSQSLQHTNGYNYLDWYLLKPGQSPQLLIFLTSNRASGVPDRFSGSGSGTNFTLKISRVEAEDVGVYYCMEGIQLWTFGQGTKLEIK
notes: as for B2

How the values were obtained:
GA4: H-(GA)4HHHHHH-NH2 = biological target: T1, GA4: H-(GA)4HHHHHH-NH2; experiment: indirect ELISA, His-tagged peptide coated at 50 ug/ml, antibody titrated [also D00024 FIG. 7F]
T1 peptide: H-GAGAGAGAHHHHHH-NH2
Excerpt: (§1) In brief, dipeptide repeat proteins were synthesized and purified by Schafer-N (Copenhagen, Denmark): GA₂₀: H-(GA)₂₀HHHHHH-NH₂; GA₁₀: H-(GA)₁₀HHHHHH-NH₂; GA₆: H-(GA)₆HHHHHH-NH₂; GA₅: H-(GA)₅HHHHHH-NH₂; GA₄: H-(GA)₄HHHHHH-NH₂; GA₃: H-(GA)₃HHHHHH-NH₂; GA₂: H-(GA)₂HHHHHH-NH₂; GP₂₀: H-(GP)₂₀HHHHHH-NH₂; GP₁₀: H-(GP)₁₀HHHHHH-NH₂; GP₆: H-(GP)₆HHHHHH-NH₂; GP₅: H-(GP)₅HHHHHH-NH₂; GP₄: H-(GP)₄HHHHHH-NH₂; GP₃: H-(GP)₃HHHHHH-NH₂; GP₂: H-(GP)₂HHHHHH-NH₂. GR₂₀: H-(GR)₂₀HHHHHH-NH₂; GR₁₀: H-(GR)₁₀HHHHHH-NH₂; GR₆: H-(GR)₆HHHHHH-NH₂; GR₅: H-(GR)₅HHHHHH-NH₂; GR₄: H-(GR)₄HHHHHH-NH₂; GR₃: H-(GR)₃HHHHHH-NH₂; GR₂: H-(GR)₂HHHHHH-NH₂; PA₂₀: H-(PA)₂₀HHHHHH-NH₂; PA₁₀: H-(PA)₁₀HHHHHH-NH₂; PA₆: H-(PA)₆HHHHHH-NH₂; PA₅: H-(PA)₅HHHHHH-NH₂; PA₄: H-(PA)₄HHHHHH-NH₂; PA₃: H-(PA)₃HHHHHH-NH₂; PA₂: H-(PA)₂HHHHHH-NH₂; PR₂₀: H-(PR)₂₀HHHHHH-NH₂; PR₁₀: H-(PR)₁₀HHHHHH-NH₂; PR₆: H-(PR)₆HHHHHH-NH₂; PR₅: H-(PR)₅HHHHHH-NH₂; PR₄: H-(PR)₄HHHHHH-NH₂; PR₃: H-(PR)₃HHHHHH-NH₂; PR₂: H-(PR)₂HHHHHH-NH₂. 96-well microplates (Corning Incorporated, Corning, USA) were coated with dipeptide repeat protein peptides at a concentration of 50 μg/ml in coating buffer (15 mM Na₂CO₃, 35 mM NaHCO₃, pH 9.42). Non-specific binding sites were blocked for 1 h at room temperature with PBS/0.1% Tween®-20 containing 2% BSA (Sigma-Aldrich, Buchs, Switzerland). Primary antibodies were diluted to the indicated concentrations and incubated 1 h at room temperature, followed by incubation with a donkey anti-human IgG Fcγ-specific antibody conjugated with HRP (Jackson ImmunoResearch Laboratories, Inc., West Grove, USA). Binding was determined by measurement of HRP activity in a standard colorimetric assay. EC₅₀ values were estimated by non-linear regression using GraphPad Prism software (San Diego, USA).

GA3: H-(GA)3HHHHHH-NH2 = biological target: T2, GA3: H-(GA)3HHHHHH-NH2; experiment: as above
T2 peptide: H-GAGAGAHHHHHH-NH2
Excerpt: as §1

GA10: H-(GA)10HHHHHH-NH2 = biological target: T3, GA10: H-(GA)10HHHHHH-NH2 (C-terminal amide); experiment: as above
T3 peptide: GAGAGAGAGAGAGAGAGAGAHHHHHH
Excerpt: as §1

[1] = biological target: T4, BSA-coupled (GR)15 DPR protein peptide (bovine, UniProt P02769 25-607, conjugated via a bifunctional linker (SMCC) to bovine serum albumin); experiment: Western blot of BSA-coupled peptides
T4 construct: also called BSA-(GR)15
T4 sequence (peptide, as listed by the source limits assumed, chain 1 of 2): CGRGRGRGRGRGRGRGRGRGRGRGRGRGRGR
T4 sequence (P02769 25-607 limits assumed, chain 2 of 2): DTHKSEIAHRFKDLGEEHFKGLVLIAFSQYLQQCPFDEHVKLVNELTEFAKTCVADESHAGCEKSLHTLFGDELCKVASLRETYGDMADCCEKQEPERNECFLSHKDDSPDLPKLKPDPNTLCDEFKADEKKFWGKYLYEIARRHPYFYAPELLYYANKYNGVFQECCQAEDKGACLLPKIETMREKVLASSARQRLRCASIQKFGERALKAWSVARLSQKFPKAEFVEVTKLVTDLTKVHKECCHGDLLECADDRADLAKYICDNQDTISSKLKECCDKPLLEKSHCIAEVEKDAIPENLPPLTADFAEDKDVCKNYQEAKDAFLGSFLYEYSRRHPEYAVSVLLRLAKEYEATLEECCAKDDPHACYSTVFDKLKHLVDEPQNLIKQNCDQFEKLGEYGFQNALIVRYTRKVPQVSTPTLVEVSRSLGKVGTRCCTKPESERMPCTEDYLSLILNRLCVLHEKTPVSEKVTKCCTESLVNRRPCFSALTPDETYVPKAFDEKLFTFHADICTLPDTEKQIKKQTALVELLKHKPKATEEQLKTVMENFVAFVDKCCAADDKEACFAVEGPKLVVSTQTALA
Procedure: (§2) Resolved proteins were then electroblotted (Novex® Semi-Dry Blotter, 1 h, 25V) on methanol-activated PVDF membranes (Immobilon®-P Transfer Membrane, Merck & Cie, Schaffhausen, Switzerland) by the use of Novex® NuPAGE® transfer buffer 2× (Life Technologies Europe B.V., Zug, Switzerland). Non-specific binding sites were blocked overnight at 4° C. (or alternatively for 1 h at room temperature) with PBS/0.1% Tween®-20 containing 2% BSA (Sigma-Aldrich, Buchs, Switzerland) (PBST). […] Membranes were washed three times in PBST for 15 min at RT and then incubated with a donkey anti-human IgG Fcγ-specific antibody conjugated with HRP (1:20000 or 1:10000 dilution, Jackson ImmunoResearch Laboratories, Inc., West Grove, USA) for 1 h at room temperature. Antibody binding was determined by membrane development using ECL and ImageQuant 350 detection (GE Healthcare, Otelfingen, Switzerland).
(§3) The binding specificity of the human-derived antibodies to BSA-coupled C9orf72 dipeptide repeat proteins (GA)₁₅, (GP)₁₅, (GR)₁₅, (PA)₁₅ and (PR)₁₅ was determined by Western blot analysis.

[2] = biological target: T5, BSA-coupled (PR)15 DPR protein peptide (bovine, conjugated via a bifunctional linker (SMCC) to bovine serum albumin); experiment: Western blot of BSA-coupled peptides
T5 construct: also called BSA-(PR)15
T5 sequence (peptide, as listed by the source limits assumed, chain 1 of 2): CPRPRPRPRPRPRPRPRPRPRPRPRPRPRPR
T5 sequence (P02769 25-607 limits assumed, chain 2 of 2): as the sequence (P02769 25-607 limits assumed, chain 2 of 2) above
Procedure: as §2, §3

[3] = biological target: T6, BSA-coupled (PA)15 DPR protein peptide (bovine, UniProt P02769 25-607, conjugated via a bifunctional linker (SMCC) to bovine serum albumin); experiment: Western blot of BSA-coupled peptides
T6 construct: also called BSA-(PA)15
T6 sequence (peptide, as listed by the source limits assumed, chain 1 of 2): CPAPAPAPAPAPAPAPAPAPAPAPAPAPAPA
T6 sequence (P02769 25-607 limits assumed, chain 2 of 2): as the sequence (P02769 25-607 limits assumed, chain 2 of 2) above
Procedure: as §2, §3

[4] = biological target: T7, (GA)15: H-CHHHHHH(GA)15-OH; experiment: indirect ELISA, uncoupled peptide coated, antibody titrated [also D00012 FIG. 3B]
T7 construct: synthetic, not coupled to BSA; also called poly-GA DPR protein peptide
T7 peptide: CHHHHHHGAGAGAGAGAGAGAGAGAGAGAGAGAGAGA
Procedure: In brief, dipeptide repeat proteins were synthesized and purified by Schafer-N(Copenhagen, Denmark): (GA)₁₅: H-CHHHHHH(GA)₁₅-OH; (GP)₁₅: H-C(GP)₁₅-OH; (GR)₁₅: H-C(GR)₁₅-OH; (PA)₁₅: H-C(PA)₁₅-OH; (PR)₁₅: H—C(PR)₁₅-OH. DPR protein peptides were then conjugated via a bifunctional linker (SMCC) to bovine serum albumin (BSA). 96-well microplates (Corning Incorporated, Corning, USA) were coated with BSA-coupled or -uncoupled dipeptide repeat protein peptides at a concentration of either 5 μg/ml or 20 μg/ml in coating buffer (15 mM Na₂CO₃, 35 mM NaHCO₃, pH 9.42). Non-specific binding sites were blocked for 1 h at room temperature with PBS/0.1% Tween®-20 containing 2% BSA (Sigma-Aldrich, Buchs, Switzerland). Primary antibodies were diluted to the indicated concentrations and incubated 1 h at room temperature, followed by incubation with a donkey anti-human IgG Fcγ-specific antibody conjugated with HRP (Jackson ImmunoResearch Laboratories, Inc., West Grove, USA). Binding was determined by measurement of HRP activity in a standard colorimetric assay. EC₅₀ values were estimated by non-linear regression using GraphPad Prism software (San Diego, USA).

Binder | binding result (GA4: H-(GA)4HHHHHH-NH2) | binding result (GA3: H-(GA)3HHHHHH-NH2) | EC50 (GA10: H-(GA)10HHHHHH-NH2) [nM] | binding result [1] | binding result [2] | binding result [3] | EC50 [4] [nM]
B1 | no binding (tested: about 4x10^5 pM (last point)) | no binding (tested: about 4x10^5 pM (last point)) | 0.37 |  |  |  | 
B2 |  |  |  | no binding | no binding | no binding | 
B3 |  |  |  | no binding | no binding | no binding | 
B4 |  |  |  |  |  |  | 0.34
